Data published in patent US20250026849A1 (ARCELLX, published 2025).
Numbering of substitutions follows the chain as printed. One block for each binder: values may come before it.

Target: T1, BCMA (Homo sapiens (Human), UniProt Q02223 1-54, limits assumed)
T1 sequence: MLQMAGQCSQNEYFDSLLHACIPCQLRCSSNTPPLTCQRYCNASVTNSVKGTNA
Experiment: ELISA, format not described
Design: unit not given here

- ELISA_avg: 13.9
B1: D-domain SEQ ID NO: 176 (designed binder)
chain: MGSWYEFDTRLGAIRNRLGALGGSEAELAAFEKEIAAFESELQAYKGKGNPEVEWLRFQAAYIRFLLQAYRHN

- ELISA_avg: 5.72
B2: D-domain SEQ ID NO: 177 (designed binder)
chain: B1 chain with D8W, T9V, G12T, N16W, G19E, F58E, Y62S, F65W, L66V

- ELISA_avg: 11.4
B3: D-domain SEQ ID NO: 179 (designed binder)
chain: B1 chain with Y5V, D8W, T9E, G12D, R15D, F58W, Q59H, F65G, L66Y

- ELISA_avg: 18.2
B4: D-domain SEQ ID NO: 180 (designed binder)
chain: MGSWAEFWDRLDAIDSRLNALGGSEAELAAFEKEIAAFESELQAYKGKGNPEVEYLREWAAYIRGYLQAYRHN

- ELISA_avg: 4.12
B5: D-domain SEQ ID NO: 226 (designed binder)
chain: MGSWYEFVTRLHAIDHRLKALGGSEADLAAFEKEIAAFESELQAYKGKGNPEVEWLRFYAAGIRMNLQAYRHN

- ELISA_avg: 14.5
B6: D-domain SEQ ID NO: 173 (designed binder)
chain: MGSWYEFWLRLSAISYRLQALGGSEAELAAFEKEIAAFESELQAYKGKGNPEVEWLRKEAAEIRSWLQAYRHN

- ELISA_avg: 20.6
B7: D-domain SEQ ID NO: 174 (designed binder)
chain: B6 chain with W8Q, S12W, S15H, Y16W, Q19I, K58M, E59R, S65N, W66E

- ELISA_avg: 14.8
B8: D-domain SEQ ID NO: 213 (designed binder)
chain: B6 chain with L9K, S12Y, S15E, Q19F, W55A, E59V, E62K, S65E, W66Q

- ELISA_avg: 8.43
B9: D-domain SEQ ID NO: 227 (designed binder)
chain: MGSWSIEFWRLEAIKFRLIALGGSEAELAAFEKEIAAFESELQAYKGKGNPEVEFLRVEAAAIRRVLQAYRHN

- ELISA_avg: 6.01
B10: D-domain SEQ ID NO: 230 (designed binder)
chain: MGSWNEFYQRLEAIENRLQALGGSEAELAMFEVRIALFEDMLQGYKGKGNPEVEALKQEAIAILRELIAYRHN

- ELISA_avg: 6.16
B11: D-domain SEQ ID NO: 178 (designed binder)
chain: MGSWFEFDRRLKAIDRRLMALGGSEAELAAFEKEIAAFESELQAYKGKGNPEVEWLRMQAAIIRNYLQAYRHN

- ELISA_avg: 13.9
B12: D-domain SEQ ID NO: 154 (designed binder)
chain: MGSWIEFDTRLAAIVHRLRALGGSEAELAAFEKEIAAFESELQAYKGKGNPEVELLRDKAAYIRYMLQAYRHN

- ELISA_avg: 7.34
B13: D-domain SEQ ID NO: 171 (designed binder)
chain: B12 chain with D8H, T9Q, A12N, V15F, H16N, L55W, D58H, K59H, Y65E

- ELISA_avg: 11.8
B14: D-domain SEQ ID NO: 169 (designed binder)
chain: B11 chain with R9K, K12Y, D15I, R16H, M19R, W55K, M58Y, Q59K, N65L

- ELISA_avg: 7.33
B15: D-domain SEQ ID NO: 163 (designed binder)
chain: MGSWMEFEGRLHAIKRRLRALGGSEAELAAFEKEIAAFESELQAYKGKGNPEVEVLRDQAAYIRLLLQAYRHN

- ELISA_avg: 6.06
B16: D-domain SEQ ID NO: 162 (designed binder)
chain: B12 chain with I5M, D8K, T9H, V15T, H16F, Y65L, M66L

- ELISA_avg: 14.9
B17: D-domain SEQ ID NO: 160 (designed binder)
chain: B12 chain with I5V, D8E, T9W, A12E, H16V, L55H

- ELISA_avg: 11.7
B18: D-domain SEQ ID NO: 170 (designed binder)
chain: B12 chain with I5V, T9N, A12Y, H16D, L55H, D58Q, Y65L, M66I

- ELISA_avg: 9.53
B19: D-domain SEQ ID NO: 166 (designed binder)
chain: B15 chain with E8D, G9E, H12W, R16K, V55F, D58H, L65M

- ELISA_avg: 17.6
B20: D-domain SEQ ID NO: 156 (designed binder)
chain: B15 chain with M5Y, G9D, H12L, R16V, V55Y, L65F, L66M

- ELISA_avg: 19.9
B21: D-domain SEQ ID NO: 164 (designed binder)
chain: B15 chain with M5S, E8V, G9F, H12D, A13T, R16S, V55T, L66M

- ELISA_avg: 4.55
B22: D-domain SEQ ID NO: 161 (designed binder)
chain: B12 chain with I5Y, D8E, T9H, A12K, H16S, R19G, L55H

- ELISA_avg: 11.9
B23: D-domain SEQ ID NO: 155 (designed binder)
chain: B12 chain with T9Y, A12K, V15L, L55G, Y65F, M66L

- ELISA_avg: 16.9
B24: D-domain SEQ ID NO: 165 (designed binder)
chain: B15 chain with M5Y, E8D, G9E, H12S, R16L, D58A, L65A, L66I

- ELISA_avg: 5.4
B25: D-domain SEQ ID NO: 167 (designed binder)
chain: B15 chain with M5H, E8D, H12S, R19W, V55H, L65Y, L66M

- ELISA_avg: 18.6
B26: D-domain SEQ ID NO: 158 (designed binder)
chain: B12 chain with I5E, T9D, A12N, H16Y, L55M, K59Q, Y65L

- ELISA_avg: 17.7
B27: D-domain SEQ ID NO: 159 (designed binder)
chain: B15 chain with M5V, G9Q, K15V, R16V, K48G, V55N, L65F, L66M

- ELISA_avg: 10.1
B28: D-domain SEQ ID NO: 157 (designed binder)
chain: B12 chain with I5Y, D8Q, T9D, A12S, V15T, H16T, Y65F

- ELISA_avg: 3.29
B29: D-domain SEQ ID NO: 168 (designed binder)
chain: B1 chain with T9G, G12Q, R15I, N16A, G19R, W55H, Q59R, F65W, L66I

- ELISA_avg: 4.05
B30: D-domain SEQ ID NO: 228 (designed binder)
chain: MGSWGEFEHRLDPSTCVWLALGGSEAELAAFEKEIAAFESELQAYKGKGNPEVEKLRRGAAVIRHWLQAYRHN

- ELISA_avg: 9.2
B31: D-domain SEQ ID NO: 216 (designed binder)
chain: MGSWDEFEFRLGALRWRLIALGGSEAELAAFEKEIAAFESELQAYKGKGNPEVEYLRFGAAHIRHILQAYRHN

- ELISA_avg: 9.63
B32: D-domain SEQ ID NO: 217 (designed binder)
chain: B31 chain with D5T, E8Y, F9H, G12Y, L14I, W16E, I19S, I66L

- ELISA_avg: 14.1
B33: D-domain SEQ ID NO: 218 (designed binder)
chain: B31 chain with D5V, F9T, G12D, L14I, W16M, I19G, H65A, I66L

- ELISA_avg: 7.35
B34: D-domain SEQ ID NO: 219 (designed binder)
chain: MGSWGEFDVRLFAIRERLSALGGSEAELAAFEKEIAAFESELQAYKGKGNPEVEYLRGYAAQIRSFLQAYRHN

- ELISA_avg: 4.95
B35: D-domain SEQ ID NO: 223 (designed binder)
chain: B34 chain with D8N, V9G, F12G, S19Q, Y55F, G58A, Q62S, S65A, F66V

- ELISA_avg: 10
B36: D-domain SEQ ID NO: 221 (designed binder)
chain: B34 chain with G5S, V9G, F12G, R15W, E16D, S19Y, G58D, Y59R, S65E

- ELISA_avg: 6.17
B37: D-domain SEQ ID NO: 222 (designed binder)
chain: B34 chain with D8E, V9G, F12H, E16S, Y55V, Q62W, S65A, F66L

- ELISA_avg: 5.61
B38: D-domain SEQ ID NO: 220 (designed binder)
chain: B34 chain with G5V, V9E, F12S, S19D, G58L, S65V

- ELISA_avg: 12.4
B39: D-domain SEQ ID NO: 231 (designed binder)
chain: MGSWNEFYDRLRAIKKRLYALGGSEAELADFEEDIAQFEVDLQDYKGKGNPEVEALHREAHAITHELWAYRHN

- ELISA_avg: 9.48
B40: D-domain SEQ ID NO: 175 (designed binder)
chain: MGSWYEFAHRLEAIEWRLIALGGSEAELAAFEKEIAAFESELQAYKGKGNPEVEELRQYAAAIRNYLQAYRHN

- ELISA_avg: 5.75
B41: D-domain SEQ ID NO: 224 (designed binder)
chain: MGSWWEFTFRLAAIEFRLEALGGSEAELAAFEKEIAAFESELQAYKGKGNPEVEDLRAIAAEIRKSLQAYRHN

- ELISA_avg: 6.16
B42: D-domain SEQ ID NO: 225 (designed binder)
chain: MGSWDEFQFRLAAIGFRLGALGGSEAELAAFEKEIAAFESELQAYKGKGNPEVEVLRRQAARIRHLLQAYRHN

- ELISA_avg: 4.09
B43: D-domain SEQ ID NO: 181 (designed binder)
chain: MGSWAEFDLRLRAIAKRLVALGGSEAELAAFEKEIAAFESELQAYKGKGNPEVEMLRLDAAYIRGVLQAYRHN

- ELISA_avg: 8.43
B44: D-domain SEQ ID NO: 203 (designed binder)
chain: MGSWTEFWTRLNAIYERLDALGGSEAELAAFEKEIAAFESELQAYKGKGNPEVEKLRFTAASIRMYLQAYRHN

- ELISA_avg: 10.7
B45: D-domain SEQ ID NO: 229 (designed binder)
chain: MGSWIEFAMRLEAIENRLTALGGSEAELAIFESMIAHFEELLQNYKGKGNPEVEALIHEAFAIHKELWAYRHN

- ELISA_avg: 3.87
B46: D-domain SEQ ID NO: 172 (designed binder)
chain: MGSWNEFRLRLWAITERLRALGGSEAELAAFEKEIAAFESELQAYKGKGNPEVECLRAEAAWIRTMLQAYRHN

- ELISA_avg: 12.5
B47: D-domain SEQ ID NO: 182 (designed binder)
chain: MGSWSEFWDRLYAIRIRLDALGGSEAELAAFEKEIAAFESELQAYKGKGNPEVEKLRSVAARIRNWLQAYRHN

- ELISA_avg: 13.6
B48: D-domain SEQ ID NO: 184 (designed binder)
chain: B47 chain with W8N, Y12D, I16W, K55W, S58Q, R62T, N65Y, W66R

- ELISA_avg: 7.3
B49: D-domain SEQ ID NO: 215 (designed binder)
chain: B47 chain with S5H, R15E, I16F, D19F, K55S, S58Q, R62K, N65W, W66H

- ELISA_avg: 12.7
B50: D-domain SEQ ID NO: 211 (designed binder)
chain: B47 chain with S5T, D9E, R15E, I16Y, D19F, R62T, N65Y, W66E

- ELISA_avg: 14.9
B51: D-domain SEQ ID NO: 183 (designed binder)
chain: B47 chain with D9F, Y12G, I16N, S58D, R62H, N65H

- ELISA_avg: 11.7
B52: D-domain SEQ ID NO: 210 (designed binder)
chain: B47 chain with S5M, R15E, I16F, D19F, S58R, R62T, W66E

- ELISA_avg: 9.95
B53: D-domain SEQ ID NO: 212 (designed binder)
chain: B47 chain with S5N, D9E, R15E, I16L, D19F, S58M, V59T, R62Y, W66E
